# According to patent US8796201B2 (The Board of Trustees of the Leland Stanford Junior …, priority 2002, dated 2014):
# B1: MX PEP: novel recombinant prolyl endopeptidase from Myxococcus xanthus (Genbank AF127082, SEQ ID NO:47) (protein, listed as Myxococcus xanthus)
# chain: MSYPATRAEQVVDTLHGVQVADPYRWLEDEKAPEVQTWMTAQNAHAREALAKFPGREALAARFKELFYTDSVSTPSRRNGRFFYVRTHKDKEKAILYWRQGESGQEKVLLDPNGWSKDGTVSLGTWAVSWDGKKVAFAQKPNAADEAVLHVIDVDSGEWSKVDVIEGGKYATPKWTPDSKGFYYEWLPTDPSIKVDERPGYTTIRYHTLGTEPSKDTVVHERTGDPTTFLQSDLSRDGKYLFVYILRGWSENDVYWKRPGEKDFRLLVKGVGAKYEVHAWKDRFYVLTDEGAPRQRVFEVDPAKPARASWKEIVPEDSSASLLSVSIVGGHLSLEYLKDATSEVRVATLKGKPVRTVQLPGVGAASNLMGLEDLDDAYYVFTSFTTPRQIYKTSVSTGKSELWAKVDVPMNPEQYQVEQVFYASKDGTKVPMFVVHRKDLKRDGNAPTLLYGYGGFNVNMEANFRSSILPWLDAGGVYAVANLRGGGEYGKAWHDAGRLDKKQNVFDDFHAAAEYLVQQKYTQPKRLAIYGGSNGGLLVGAAMTQRPELYGAVVCAVPLLDMVRYHLFGSGRTWIPEYGTAEKPEDFKTLHAYSPYHHVRPDVRYPALLMMAADHDDRVDPMHARKFVAAVQNSPGNPATALLRIEANAGHGGADQVAKAIESSVDLYSFLFQVLDVQGAQGGVAAQGR
# B2: PEP: prolyl endopeptidase; Examples 1-2: from Flavobacterium meningosepticum (US Biological); Example 11: source not stated (protein, UniProt P27028 21-705, looked up)
# Prolyl endopeptidase: QNSNVLKYPETKKVSHTDTYFGTQVSDPYRWLEDDRAEDTKAWVQQEVKFTQDYLAQIPFRDQLKKQLMDIWNYEKISAPFKKGKYTYFSKNDGLQAQSVLYRKDAAGKTEVFLDPNKFSEKGTTSLASVSFNKKGTLVAYSISEGGSDWNKIIILDAETKKQLDETLLDVKFSGISWLGDEGFFYSSYDKPKEGSVLSGMTDKHKVYFHKLGTKQSQDELIIGGDKFPRRYIGAYVTDDQRYLVVSAANATNGNELYIKDLKNKTDFIPIITGFDSNVNVADTDGDTLYLFTDKDAPNKRLVKTTIQNPKAETWKDVIAETSEPLEINTGGGYFFATYMKDAIDQVKQYDKNGKLVRAIKLPGSGNASGFGGEKTEKDLYYSFTNYITPPTIFKYNVTTGNSEVYQKPKVKFNPENYVSEQVFYTSSDGTKIPMMISYKKGLKKDGKNPTILYSYGGFNISLQPAFSVVNAIWMENGGIYAVPNIRGGGEYGKKWHDAGTKMQKKNVFNDFIAAGEYLQKNGYTSKEYMALSGRSNGGLLVGATMTMRPDLAKVAFPGVGVLDMLRYNKFTAGAGWAYDYGTAEDSKEMFEYLKSYSPVHNVKAGTCYPSTMVITSDHDDRVVPAHSFKFGSELQAKQSCKNPILIRIETNAGHGAGRSTEQVVAENADLLSFALYEMGIKSLK
# B3: FM PEP: recombinant prolyl endopeptidase from Flavobacterium meningosepticum (Genbank D10980) (protein)
# chain: B2 Prolyl endopeptidase
# Tests used:
# [1] = Retention of PEP activity on lyophilization, enteric coating, storage and tabletting; assay type: physicochemical
# Experimental: Lyophilization of M. xanthus PEP was performed as follows. The PEP was purified as described in Example 3, and concentrated to an initial concentration of 7.7 mg/ml by Tangential-Flow Filtration (TFF) using a 10K MWCO Pellicon difiltration membrane (Millipore, PLCGC10, 50 cm, Cat. No. PXC010C50). TFF (using a LabScale TFF from Millipore, Cat. No. 29751) was performed for approximately 12 hours (pressure of 50 psi (retentate)/30 psi (permeant)), with periodic addition to the reservoir of 50 mM Sodium Phosphate, 3% Sucrose pH 7.5. Thereafter, PEG-4000 was added with a target concentration of 1%. The final protein concentration was 70-100 mg/ml. This material was centrifuged, then lyophilized. The lyophilization was performed in square petri dishes (Falcon Cat. No. 35-1112) in a DuraStop lyophilizer using parameters outlined in the Table below. Typically, 0.7-0.85 mg PEP was present per mg of lyophilized material.
# The enteric coating was mixed vigorously in a beaker on a stir plate. The solution was then decanted into a spray bottle. Rat capsules were carefully spread on paper towels in groups of 20 and the enteric coating solution sprayed onto the capsules. Warm air was used to partially dry the capsules before moving them to a dry paper towel where they air-dried for 30 minutes before the next coat was applied. A total of 3 coats were applied in order to cover all sides of the capsules. […]
# [2] = Double-blind crossover gluten challenge: 72-hour quantitative fecal fat test; assay type: in vivo, human (Celiac Sprue patients)
# Text: It was first established that a low-dose, short-term (5-10 g/day for 14 days) gluten oral supplement induces fat and carbohydrate malabsorption when given to asymptomatic Celiac Sprue patients on an otherwise gluten free diet. This protocol was modified to examine the effect of gluten pre-treated with pepsin, trypsin and chymotrypsin (PTC-Gluten) as compared to PTC-Gluten additionally treated with PEP (PTC-Gluten+PEP). In this study, Celiac patients maintaining a gluten-free diet ingested a supplement of 5 g/day gluten as PTC-Gluten or PTC-Gluten+PEP in an orange-lemon juice vehicle for 14 days in a double-blind crossover manner. A 6-week washout interval between individual arms of the crossover trial allowed patients to recover completely from the effects, if any, of the test material in the first arm.
# Subjects and protocols: This study was approved by the Institutional Review Board of the Palo Alto Medical Foundation in Palo Alto, Calif., and all participants in the study were counseled regarding risks and signed an informed consent document. 22 patients were recruited who were in symptomatic remission on a gluten-free diet. Two patients dropped out of the study, one near the end of the first stage and the other prior to the second stage. The 20 patients who completed the study included 7 men and […] aged 21 to 78 (mean age 49). The time since diagnosis for the 20 patients ranged from 3 months to 18 years (mean 6 years). Patients provided copies of their initial small-intestinal biopsy pathology report and laboratory reports documenting a history of at least one positive celiac antibody (gliadin, endomysial or transglutaminase) to verify a diagnosis of Celiac Sprue. They also completed an entry questionnaire inquiring about their medical history, adherence to the gluten-free diet, and current symptoms. The format of the study was a double-blinded crossover in which each patient consumed either a low daily dose of a gluten supplement (5 g; equivalent of one-half slice of bread) that was predigested with pepsin, trypsin and chymotrypsin alone (PTC-Gluten) or PTC-Gluten treated with prolyl endopeptidase (PTC-Gluten+PEP). The PEP in the latter orange juice mixture was completely inactivated through a heating process following proteolysis of the gliadin peptides. […]
# Studied variables: During each stage of the study, patients completed a daily questionnaire inquiring about symptoms and their adherence to the gluten-free diet. […] The serum anti-gliadin IgA antibodies and anti-tissue transglutaminase IgA and IgG antibodies were measured by an enzyme linked immunosorbent assay (ELISA) kit (INOVA Diagnostics, Inc., San Diego, Calif.). […] Total serum IgA levels were determined by an Integra instrument (Roche) (normal <81 mg/dl). […]
# [3] = Allergenicity of the denatured protein; parameters: species or system rodents, rabbits and humans; conditions: in vivo
# [4] = All patients with full Fecal Fat data (N = 17)
# [5] = Subgroup with normal to Mild Steatorrhea (N = 8)
molecule,measurement,setting,value
B1,specific activity upon lyophilization,[1],No loss of specific activity
B2,"PEP Effective (patients / patients with positive gluten challenge), fecal fat",[2]; [4],5/7
same,"PEP Effective, fecal fat",[2]; [4],71%
same,"PEP Effective (patients / patients with positive gluten challenge), fecal fat",[2]; [5],4/4
same,"PEP Effective, fecal fat",[2]; [5],100%
B3,allergenicity of the denatured protein,[3],"non-allergenic in rodents, rabbits and humans"
